Assay [1] concerns the target T1, ErbB4.Fc (UniProt Q15303 26-651, limits assumed).
T1 construct: also called soluble form of ErbB4 receptor; immobilized soluble ErbB4 receptor; not shown: Fc part, not described; the protein was captured on the plate by goat anti-human antibody
T1 sequence (looked up): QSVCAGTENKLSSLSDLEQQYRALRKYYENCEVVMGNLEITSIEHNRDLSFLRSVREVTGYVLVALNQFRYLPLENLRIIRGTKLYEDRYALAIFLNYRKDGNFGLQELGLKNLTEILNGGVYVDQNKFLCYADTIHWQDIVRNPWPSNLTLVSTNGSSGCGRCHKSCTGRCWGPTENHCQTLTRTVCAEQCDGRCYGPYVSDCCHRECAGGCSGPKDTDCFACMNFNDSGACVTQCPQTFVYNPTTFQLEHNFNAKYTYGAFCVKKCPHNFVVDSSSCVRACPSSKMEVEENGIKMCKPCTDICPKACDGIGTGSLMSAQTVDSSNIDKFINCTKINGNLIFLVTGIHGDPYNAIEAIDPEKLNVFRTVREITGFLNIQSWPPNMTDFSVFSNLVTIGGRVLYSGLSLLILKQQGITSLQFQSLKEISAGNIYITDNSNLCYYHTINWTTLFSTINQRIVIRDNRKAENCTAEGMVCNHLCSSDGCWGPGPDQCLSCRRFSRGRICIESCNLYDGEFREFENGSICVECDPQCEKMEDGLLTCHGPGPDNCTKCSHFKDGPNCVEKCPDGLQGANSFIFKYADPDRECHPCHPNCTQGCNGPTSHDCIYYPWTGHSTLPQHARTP
Put plainly: displacement of 125I-NRG3^EGF.Fc from immobilized ErbB4.Fc by NRG1^EGF.

In assay [2] the target is T2, human ErbB2 receptor on cells (human, UniProt P04626 23-1255).
T2 construct: whole, on cells; also called HER2; K562^erbB2 cells
Description: FACS on K562^erbB2 cells. The protocol: (§1) In FIGS. 6A–6D, parental K562 cells (FIG. 6A) or K562 cells expressing either ErbB2 receptor (K562^erbB2 cells; FIG. 6B), ErbB3 receptor (K562^erbB3 cells; FIG. 6C) or ErbB4 receptor (K562^erbB4 cells; FIG. 6D) were examined for the expression of corresponding receptors. Cells were incubated with anti-ErbB2 receptor, anti-ErbB3 receptor or anti-ErbB4 receptor antibodies as indicated before PE-conjugated secondary antibody was added. "LOG PE" represents relative fluorescent intensity and "Counts" represents cell numbers. In FIGS. 6E–6H, NRG3^EGF.Fc is shown by FACS analysis to bind to ErbB4 receptor expressing cells. Parental K562 cells (FIG. 6E), K562^erbB2 cells (FIG. 6F), K562^erbB3 cells (FIG. 6G) and K562^erbB4 cells (FIG. 6H) were incubated with or without NRG3^EGF.Fc (containing gD tag) for 1 hour, followed by anti-gD-tag primary antibody and PE-conjugated secondary antibody.
(§2) C. FACS Analysis. For each binding reaction, 5×10^5 stably transfected K562 cells were suspended in PBS/2% BSA at 4° C. for 30 min followed by incubation with 5 µg of isolated, purified NRG3^EGF.Fc (MW 90 kDa) in a volume of 0.25 ml on ice for 60 min. 1 µg of primary antibody (anti-gD or anti-ErbB receptor) and secondary PE-conjugated (CALTAG, Calif., goat anti-mouse, 1:100 dilution) antibodies were added sequentially with 30–60 min incubation time and extensive washes before each addition. […]

For assay [3], the target named is T3, human ErbB3 receptor on cells (human, UniProt P21860 20-1342).
T3 construct: whole, on cells; also called HER3; K562^erbB3 cells
Description: FACS on K562^erbB3 cells. The protocol:
as §1, §2

The target in assay [4] is T1, ErbB4.Fc. Put plainly: displacement of 125I-NRG3^EGF.Fc from immobilized ErbB4.Fc by unlabeled NRG3^EGF.Fc. The protocol: The displacement binding assays were performed in Maxisorp C 96-wells (Nunc, Naperville, Ill.). Goat anti-human antibody (Boehringer Mannheim, Germany) was coated on the plate at a concentration of 0.2 µg/well in 100 µl of 50 mM sodium carbonate buffer (pH 9.6) at 4° C., overnight. The plate was blocked by 1% BSA in TBST buffer (25 mM Tris, pH 7.5, 150 mM NaCl, 0.02% Tween 20) for 30 min at room temperature (RT). A soluble form of ErbB4 receptor was added at 15 ng/well in 1% BSA/TBST and incubated for 1.5 hr at RT. To prevent radiolabeled protein from interacting with residual goat anti-human antibodies, 1 µM of a humanized monoclonal antibody (rhuMAB HER2; Carter, P. et al. (1992) *Proc. Natl. Acad. Sci. USA* 89:4285–9) was added to the plate for 20 min and was included in the subsequent binding reaction.
The unbound material was washed by TBST extensively, and the bound radioactivity was counted on a Beckman IsoData gamma-counter (Smith-Kline Beckman, Pa.). Data was analyzed using a nonlinear regression computer program.

gD epitope tag = herpes gD epitope tag left after the gD signal sequence; Fc (human IgG1) = Fc portion of human IgG1

T3 sequence (P21860 20-1342): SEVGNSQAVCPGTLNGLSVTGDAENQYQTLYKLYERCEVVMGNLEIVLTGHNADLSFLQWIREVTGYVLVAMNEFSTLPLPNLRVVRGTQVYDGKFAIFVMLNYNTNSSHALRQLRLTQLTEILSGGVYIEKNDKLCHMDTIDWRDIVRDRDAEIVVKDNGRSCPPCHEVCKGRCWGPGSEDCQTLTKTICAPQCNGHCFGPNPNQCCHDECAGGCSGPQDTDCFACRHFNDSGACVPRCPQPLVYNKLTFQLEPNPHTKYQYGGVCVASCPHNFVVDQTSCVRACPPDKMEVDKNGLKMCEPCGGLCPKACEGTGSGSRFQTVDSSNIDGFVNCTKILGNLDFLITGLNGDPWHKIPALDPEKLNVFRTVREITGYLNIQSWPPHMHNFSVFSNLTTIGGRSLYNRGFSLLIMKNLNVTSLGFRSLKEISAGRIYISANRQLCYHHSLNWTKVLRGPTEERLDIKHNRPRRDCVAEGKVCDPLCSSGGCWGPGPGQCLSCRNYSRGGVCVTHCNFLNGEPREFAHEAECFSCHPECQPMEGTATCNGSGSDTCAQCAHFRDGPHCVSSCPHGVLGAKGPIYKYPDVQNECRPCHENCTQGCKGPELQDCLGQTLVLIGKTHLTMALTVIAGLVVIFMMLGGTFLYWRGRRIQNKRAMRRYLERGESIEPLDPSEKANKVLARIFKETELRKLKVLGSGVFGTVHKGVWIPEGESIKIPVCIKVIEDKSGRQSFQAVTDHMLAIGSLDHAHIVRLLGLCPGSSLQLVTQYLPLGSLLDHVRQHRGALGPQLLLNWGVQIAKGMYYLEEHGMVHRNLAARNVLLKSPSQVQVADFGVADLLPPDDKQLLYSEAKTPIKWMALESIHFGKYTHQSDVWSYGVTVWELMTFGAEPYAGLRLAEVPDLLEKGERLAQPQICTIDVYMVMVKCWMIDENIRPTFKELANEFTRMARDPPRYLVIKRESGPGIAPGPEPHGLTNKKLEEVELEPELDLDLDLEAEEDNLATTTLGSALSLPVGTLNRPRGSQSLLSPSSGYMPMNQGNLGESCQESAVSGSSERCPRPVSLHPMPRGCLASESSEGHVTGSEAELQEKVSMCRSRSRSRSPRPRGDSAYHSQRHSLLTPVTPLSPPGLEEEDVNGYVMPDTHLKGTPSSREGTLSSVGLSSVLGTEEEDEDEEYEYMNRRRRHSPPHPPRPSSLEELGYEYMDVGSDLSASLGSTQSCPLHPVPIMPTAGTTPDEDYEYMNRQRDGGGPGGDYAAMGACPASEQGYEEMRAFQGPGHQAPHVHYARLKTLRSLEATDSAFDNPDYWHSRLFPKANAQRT

“NRG1^EGF (from UniProt Q02297 177-244) (ligand)” came in with a Ki in assay [1] of 1 nM.

B1: NRG3^EGF.Fc (Fc fusion)
chain: {gD epitope tag}-ERSEHFKPCRDKDLAYCLNDGECFVIETLTGSHKHCRCKEGYQGVRCDQFLPKTDSILSDP-{Fc (human IgG1)}
modifications: not fully specified
notes: Secreted from CHO cells, purified on protein A; MW 90 kDa; also called NRG3-EGF-Fc fusion protein; not shown: Fc portion of human IgG1
Regarding B1, the binding result in assay [2] and in assay [3] was “no binding (tested: 5 µg in a volume of 0.25 ml)” throughout. The affinity in assay [4] corresponds to a Ki of 9 nM.

(Values after patent US6994856 (Genentech, dated 2006).)
